The results in this text go back to the supplement of paper PMC9170038.

Data set [1] concerns MS2 coat protein. Kind of data set: apparent KD of MS2 coat protein; higher = weaker reporter binding. The following applies: Eterna round: R101. The method, then: (§1)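 RNA-MaP: designed FMN/MS2 RNA switches (84 nt design region) are transcribed on-chip within common flanks and titrated with SNAP-549-labelled MS2 coat protein (about 1-3000 nM) in 100 mM Tris pH 7.5, 80 mM KCl, 4 mM MgCl2, without or with 200 uM FMN. Median apparent KD per design; activation ratio = KD,OFF / KD,ON.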

For data set [2], the system named is MS2 coat protein. Kind of data set: apparent KD of MS2 coat protein; designed switch direction (-1 OFF switch, 1 ON switch): -1; higher = weaker reporter binding. The following applies: Eterna round: R98. The protocol:
as §1

In data set [3] the test system is MS2 coat protein. The data set is described as follows: apparent KD of MS2 coat protein; designed switch direction (-1 OFF switch, 1 ON switch): 1; higher = weaker reporter binding. The conditions noted are these: Eterna round: R98. The protocol: as §1

On to “UGUAUUAAUGGAGGAUAUCAAUAUCAAACAUGAGGAUCACCCAUGUUGAGGAUCACCCAUGUCCAUGAGAAGGCUGGCGUACGU [My 19th design] (puzzle (switch architecture): Same State NG 2)”, for which the “apparent KD of MS2 coat protein” value with MS2 coat protein [1] (input ligand: FMN 200 uM) turned out to be 10.9 nM; in the data set on MS2 coat protein [1] (input ligand: none) it was 9.37 nM.

For “AUGCCGUGCAGAGCGCAACGGCGUACAUGAGGAUCACCCAUGUAGGAUAUACUACACAAAGUGUAGUAGAAGGACAUGCGACUG [Ex NG2 #93]”, the “apparent KD of MS2 coat protein” value with MS2 coat protein [2] (input ligand: FMN 200 uM) is 185 nM; in the data set on MS2 coat protein [2] (input ligand: none), 56.7 nM.

In the case of “UCUUAAAUGAUCCUAUUUACCAACAUGAGGAUCACCCAUGUGCAGGAUAUGCUAAAGAUAAAUAAGCAGAAGGGCAAUAACCGC [JR_ExcNG3_Sub007]”, the “apparent KD of MS2 coat protein” value with MS2 coat protein [2] (input ligand: FMN 200 uM) was found to be 608 nM; in the data set with MS2 coat protein [2] (input ligand: none), 127 nM.

On to “AGAGCUGCUCAGAAGGAGGAUCACCCUUUCGAAAGAAAUACGGAGGCUGAAAAGCCUCCGAAAUCCUAGGAUAUGAGCAGCUCA [#SharedSequence - IExNG2: 3] (puzzle (switch architecture): Inverted Exclusion NG 2)”, for which the results for the “apparent KD of MS2 coat protein” value in the data set on MS2 coat protein [1] (input ligand: FMN 200 uM) and with MS2 coat protein [1] (input ligand: none) were 7.43 nM and 791 nM, respectively.

As for “GAACUCACGGCAUGCAUAUAAGCACAUGAGGAUCACCCAUGUCAGGAUAUCCACGGUCGUGCUUCGGAGAAGGGACAUGAGGCG [Lainxe]”, the “apparent KD of MS2 coat protein” value in the data set with MS2 coat protein [2] (input ligand: FMN 200 uM) came out at 48 nM; with MS2 coat protein [2] (input ligand: none) it was 51.7 nM.

In the case of “CUAUAGAUAUGAGGAUAUGUAUAUCCAACAUGAGGAUCACCCAUGUUGAGGAUCACCCAUGUAAAGCAGAAGGCAUAUCUAUAG [#HighScoreProbStacks] (puzzle (switch architecture): Same State NG 2)”, the results for the “apparent KD of MS2 coat protein” value in the data set with MS2 coat protein [1] (input ligand: FMN 200 uM) and in the data set on MS2 coat protein [1] (input ligand: none) were 16.6 nM and 21.5 nM, respectively.

Regarding “CCUGCACCUCAAGGAUAUCCAGUCGAAACGACUGGAGAAGGUGAGGAUCACCCAUCUAGCCUGACGAAAGUCAGGCAUGCAGGA [#SharedSequence - ExNG1-5] (puzzle (switch architecture): Exclusion NG 1)”, the “apparent KD of MS2 coat protein” value in the data set on MS2 coat protein [1] (input ligand: FMN 200 uM) was found to be 848 nM.

As to “ACACGUCGUGAGAAGGAGGAUCACCCUUUCGAAAGAAAUAGCCACCGUGAAAACGGUGGCAGAUUUUAGGAUAUCACGACGUGA [#SharedSequence - IExNG2: 9] (puzzle (switch architecture): Inverted Exclusion NG 2)”, the figures for the “apparent KD of MS2 coat protein” value in the data set with MS2 coat protein [1] (input ligand: FMN 200 uM) and in the data set with MS2 coat protein [1] (input ligand: none) were 113 nM and 88.3 nM, respectively.

With “AAACUGCCACAUGAGGAUCACCCAUGUAAAUAAAGUAUUUGAAGAAGGGCGAUAGCAAAGCUAUCGCAGGAUAUUCUCAGGCAG [#GuReductionToAU - jl-sng2-2.35] (puzzle (switch architecture): Inverted Same State NG 3)”, the “apparent KD of MS2 coat protein” value is 8.34 nM with MS2 coat protein [1] (input ligand: FMN 200 uM) and 43.7 nM in the data set on MS2 coat protein [1] (input ligand: none).

Take “AAAAGAACCCGAGGAUAUGCGAAAUCACGAAGAGCAGAAGGCGGCUACAUGUGGAUCCGAGGACAUGAGGAUCACCCAUGUACG [Iszaaatce]”: the figures for the “apparent KD of MS2 coat protein” value in the data set with MS2 coat protein [2] (input ligand: FMN 200 uM) and in the data set with MS2 coat protein [2] (input ligand: none) were 165 nM and 321 nM, respectively.

Take “AGGAGAAAUGUAGGAUAUAUAUAUAUAUAUGGGCAAAGCGCAUAUAUAUAUAUAGAAGGACAUGAGGAUCACCCAUGUUUCCCU [#Lowering the energy 11] (puzzle (switch architecture): Small Loop Exclusion NG 1)”: the “apparent KD of MS2 coat protein” value in the data set with MS2 coat protein [1] (input ligand: FMN 200 uM) was found to be 10.9 nM; with MS2 coat protein [1] (input ligand: none), 10.8 nM.

For “GUGGUUGUCGUAGGAUAUGUAGGAUAUUCCUACAUGAGGAUCACCCAUGUUCGCAUGGAAGAAGGACAGAAGGACGAUGACCAG [salish99_SSNG2_011 #endbits investigation] (puzzle (switch architecture): Same State NG 2)”, the “apparent KD of MS2 coat protein” value came to 9.85 nM with MS2 coat protein [1] (input ligand: FMN 200 uM) and 855 nM in the data set on MS2 coat protein [1] (input ligand: none).

“AAAUAAAUUGAAGGAUAUCAGGGUGCACCUCAGUAAAACUGAGGUGCACCCUGAGAAGGUCGAGGAUCACCCGACCUAAAUAAA [#SharedSequence SLExNG1: 4-2] (puzzle (switch architecture): Small Loop Exclusion NG 1)”: the entries for the “apparent KD of MS2 coat protein” value with MS2 coat protein [1] (input ligand: FMN 200 uM) and in the data set on MS2 coat protein [1] (input ligand: none) were 8.37 nM and 7.63 nM, respectively.

Take “GCCAUCGCAUGAGGAUAUGCUCCCGUUUCGGGAGCAGAAGGCAUGUCAUAAGACAUGAGGAUCACCCAUGUAGUUAAGAUGGCA (puzzle (switch architecture): Same State NG 1)”: the “apparent KD of MS2 coat protein” value in the data set on MS2 coat protein [1] (input ligand: FMN 200 uM) was determined as 11.7 nM; with MS2 coat protein [1] (input ligand: none) it was 285 nM.

For “GGUACUCAAAGAGUACCAAUACGAACAUGAGGAUCACCCAUGUAGGAUAUGCUACUCAAAGAGUAGCAGAAGGACAUGUGUAAA [OmeiMod 10 - Jieux - Exclusion NG 3]”, the “apparent KD of MS2 coat protein” value in the data set on MS2 coat protein [2] (input ligand: FMN 200 uM) was 567 nM; with MS2 coat protein [2] (input ligand: none), 92.4 nM.

For “UCAUACAUGAGGAUCACCCAUGACAUGAGGAUCACCCAUGUGCAGGAUAUACGUGAUAUAAUAUAGUAGAAGGGCAGACUAUAA [LRO006_Exclusion NG 3]”, the “apparent KD of MS2 coat protein” value with MS2 coat protein [2] (input ligand: FMN 200 uM) was determined as 53 nM; in the data set with MS2 coat protein [2] (input ligand: none), 39.8 nM.

“CGCUAUGACAUGAGGAUCACCCAUGUAUACAUGGGAAUGACGUAGGAUAUGCAGAAGAUUAAAGUGCAGAAGGACGGCUUUGCG [JR #DistanceClose #Static #NP SSNG3 Sub063] (puzzle (switch architecture): Same State NG 3)”: the “apparent KD of MS2 coat protein” value in the data set with MS2 coat protein [1] (input ligand: FMN 200 uM) is 214 nM; in the data set on MS2 coat protein [1] (input ligand: none), 433 nM.

As for “GGACGUCACAUUAACAUGAGGAUCACCCAUGUCAAAAGACAUGAGGAUAUGGAUCCUAAUUGGAUCCAGAAGGCAUGGACGUCC [#HiddenHairpinInALoop - Fiskers NG3ss - 39] (puzzle (switch architecture): Same State NG 3)”, the “apparent KD of MS2 coat protein” value in the data set with MS2 coat protein [1] (input ligand: FMN 200 uM) was determined as 14.8 nM; in the data set with MS2 coat protein [1] (input ligand: none) it was 236 nM.

Turning to “UAAGUCGGAAGAUAAUAAUGAAUACAUGAGGAUCACCCAUGUAAGGAUAUGCAGUGGAAUACACUGCAGAAGGUACAAACCGAC [Exclusion NG 3/17-A2]”, the “apparent KD of MS2 coat protein” value came to 24.6 nM in the data set with MS2 coat protein [2] (input ligand: FMN 200 uM) and 15.2 nM in the data set on MS2 coat protein [2] (input ligand: none).

On to “CGAGACACUUGAGGAUAUGCUCAGGAUAACUGAGCAGAAGGCAGGAAAACCUGAGGAUCACCCAGGUAACUGGAAAGUCUCGAA [Same State NG1 - A3C, U17G Submission 5F-G46A]”, for which the “apparent KD of MS2 coat protein” value with MS2 coat protein [3] (input ligand: FMN 200 uM) worked out at 16.9 nM; with MS2 coat protein [3] (input ligand: none), 17.9 nM.

With “AAAUAAACCUUAGGAUAUGACUCCGAAACGGAGUCAGAAGGGAGGAUCACCCUCUUCAGCUCAGCGUCGAAAGACGCUGAGCAA [#SharedSequence ExNG1 - 21] (puzzle (switch architecture): Exclusion NG 1)”, the “apparent KD of MS2 coat protein” value was 63.3 nM in the data set on MS2 coat protein [1] (input ligand: FMN 200 uM) and 72.9 nM with MS2 coat protein [1] (input ligand: none).

Consider “AAAUGUACGAAGAAGGCUCUGCCACUGGCCGAGAGAGGAUAUUCACACAUGAGGAUCACCCAUGUCGAACAAAGUACACAGAGC [EternaBot1858] (puzzle (switch architecture): Inverted Same State NG 1)”, for which, in the data set with MS2 coat protein [1] (input ligand: FMN 200 uM), the “apparent KD of MS2 coat protein” value came to 7.05 nM.

In the case of “CCUGCACUUCAAGGAUAUCCAGUCGAAACGACUGGAGAAGGUGAGGAUCACCCACCUAGCCUGACGAAAGUCAGGCAUGCAGGA [#SharedSequence - ExNG1-3] (puzzle (switch architecture): Exclusion NG 1)”, the “apparent KD of MS2 coat protein” value in the data set with MS2 coat protein [1] (input ligand: FMN 200 uM) was 8.06 nM; in the data set on MS2 coat protein [1] (input ligand: none), 8.62 nM.

Regarding “AAUAAUUCUCAAGGAUAUGACUCCGAAACGGAGUCAGAAGGUGAGGAUCACCCACCUAGCUCAGCGUCGAAAGACGCUGAGCAA [#SharedSequence ExNG1 - 35] (puzzle (switch architecture): Exclusion NG 1)”, the “apparent KD of MS2 coat protein” value in the data set on MS2 coat protein [1] (input ligand: FMN 200 uM) is 314 nM; in the data set with MS2 coat protein [1] (input ligand: none) it was 18.4 nM.

Take “UUUACAUGAGGAUCACCCAUGUCUGUCACGCGUGUGUGCAAUCAGGAUAUGAUCUCAAGAAUGAAUUAGAAGGGAUAACGUGAG [Attempt 5]”: the “apparent KD of MS2 coat protein” value with MS2 coat protein [3] (input ligand: FMN 200 uM) was determined as 354 nM; with MS2 coat protein [3] (input ligand: none) it was 366 nM.

Regarding “GGACGUCACAUUAACAUGAGGAUCACCCAUGUCAAAAGACAUGAGGAUAUGGAUCCUAAUUGGAUCCAGAAGGCAUGGACGUCC [EliMod 1 - Jieux - Same State NG 3]”, the “apparent KD of MS2 coat protein” value with MS2 coat protein [3] (input ligand: FMN 200 uM) was determined as 38.9 nM; with MS2 coat protein [3] (input ligand: none) it was 680 nM.

In the case of “AAUAUAAAGAGCUGGCUUCUAAUAACAUGAGGAUCACCCAUGUAGGAUAUCAGCACGAUAAGUGCUGAGAAGGACAUCCAGCUC [Denovo 53]”, the “apparent KD of MS2 coat protein” value in the data set on MS2 coat protein [2] (input ligand: FMN 200 uM) is 14.3 nM; in the data set with MS2 coat protein [2] (input ligand: none), 14.4 nM.

In the case of “CUGUGACGGAUCCAGAAUUACAACAUGAGGAUCACCCAUGUGCAGGAUAUCGGGUUGAUAGGCGCCGAGAAGGGUAUGAUCACG [Ex NG2 #37]”, the “apparent KD of MS2 coat protein” value came out at 77.3 nM with MS2 coat protein [2] (input ligand: FMN 200 uM) and 80 nM in the data set with MS2 coat protein [2] (input ligand: none).

On to “AAGAUACUUACAGGAUAUAGGGCAGAGGGUGCCCUAGAAGGGUGAACAUGAGGAUCACCCAUGUAUGUAUCAGAUUAGAAGGCA [Inleesti]”, for which the “apparent KD of MS2 coat protein” value in the data set with MS2 coat protein [3] (input ligand: FMN 200 uM) stood at 63.4 nM; in the data set on MS2 coat protein [3] (input ligand: none), 43.3 nM.
